Measured values published in publication PMC7612376, “Structural basis of meiotic chromosome synaptic elongation through hierarchical fibrous assembly of SYCE2-TEX12” (Nature structural & molecular biology, 2021).
Changes are numbered by the printed parent chain. Names and notes keep the numbering of the source. Each block holds one molecule with its values, some of them ahead of it.

T1: MBP-SYCE2 core (57-165) fusion protein (human, UniProt Q6PIF2 57-165)
T1 construct: SYCE2, human, core, residues 57-165; also called SYCE2-TEX12 core MBP-fusion, SYCE2 chain; source: E. coli BL21 (DE3), co-expressed with TEX12, purified; not shown: MBP, N-terminal, kept
T1 sequence (looked up): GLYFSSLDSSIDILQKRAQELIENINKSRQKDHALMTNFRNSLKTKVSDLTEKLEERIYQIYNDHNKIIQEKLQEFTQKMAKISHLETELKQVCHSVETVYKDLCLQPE

T2: SYCE2 core ΔS2C (amino-acids 57-154) (human, UniProt Q6PIF2 57-154)
T2 construct: SYCE2, human, ΔS2C, residues 57-154; source: E. coli BL21 (DE3), co-expressed with TEX12, purified (Ni-NTA, amylose, ion exchange, SEC); not shown: MBP, N-terminal, cleaved
T2 sequence (looked up): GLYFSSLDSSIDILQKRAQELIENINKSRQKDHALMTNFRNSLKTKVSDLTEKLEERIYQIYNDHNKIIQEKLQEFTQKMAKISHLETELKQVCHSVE

T3: SYCE2 full-length (1-218) (human, UniProt Q6PIF2 1-218)
T3 construct: SYCE2, human, full-length, residues 1-218; source: E. coli BL21 (DE3), co-expressed with TEX12, purified (Ni-NTA, amylose, ion exchange, SEC); not shown: MBP, N-terminal, cleaved
T3 sequence (looked up): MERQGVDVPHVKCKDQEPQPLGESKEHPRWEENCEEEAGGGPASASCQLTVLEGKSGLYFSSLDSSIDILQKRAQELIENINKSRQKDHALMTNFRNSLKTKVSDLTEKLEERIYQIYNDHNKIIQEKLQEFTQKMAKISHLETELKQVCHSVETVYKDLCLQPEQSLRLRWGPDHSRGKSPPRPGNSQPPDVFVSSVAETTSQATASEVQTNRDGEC

T4: MBP-SYCE2 core ΔS2C (57-154) fusion protein (human, UniProt Q6PIF2 57-154)
T4 construct: SYCE2, human, ΔS2C, residues 57-154; also called ΔS2C MBP-fusion, SYCE2 chain; source: E. coli BL21 (DE3), co-expressed with TEX12, purified; not shown: MBP, N-terminal, kept
T4 sequence (looked up): T2 sequence (looked up)

B1: TEX12 core ΔCtip (49-113) of the SYCE2-TEX12 core MBP-fusion proteins (domain or fragment, human, UniProt Q9BXU0 49-113, looked up)
chain: KDEALEKDLNDVSKEINLMLSTYAKLLSERAAVDASYIDEIDELFKEANAIENFLIQKREFLRQR
notes: TEX12, human, core ΔCtip, residues 49-113; also called ΔCtip in the MBP-fusion complex; source: E. coli BL21 (DE3), co-expressed with MBP-SYCE2, purified
B2: TEX12 core ΔCtip (amino-acids 49-113) (domain or fragment, human, UniProt Q9BXU0 49-113, looked up)
chain: B1 chain
notes: TEX12, human, core ΔCtip, residues 49-113; source: E. coli BL21 (DE3), co-expressed with SYCE2, purified (Ni-NTA, amylose, ion exchange, SEC); not shown: His6, N-terminal, cleaved
B3: SYCE2-TEX12 core ΔS2C/ΔCtip 2:2 complex (complex, human)
chain 1: T2 sequence (looked up)
chain 2: B1 chain
notes: SYCE2, human, ΔS2C, residues 57-154; TEX12, human, core ΔCtip, residues 49-113; m3 + m10; also called ΔS2C/ΔCtip core complex; source: E. coli BL21 (DE3), co-expressed, purified (Ni-NTA, amylose, ion exchange, SEC); not shown: MBP, N-terminal, cleaved; His6, N-terminal, cleaved; copies: 2 + 2
B4: TEX12 ΔCtip (amino-acids 1-113) (domain or fragment, human, UniProt Q9BXU0 1-113, looked up)
chain: MMANHLVKPDNRNCKRPRELESPVPDSPQLSSLGKSDSSFSEISGLFYKDEALEKDLNDVSKEINLMLSTYAKLLSERAAVDASYIDEIDELFKEANAIENFLIQKREFLRQR
notes: TEX12, human, ΔCtip, residues 1-113; also called TEX12 ΔCtip truncation; source: E. coli BL21 (DE3), co-expressed with SYCE2, purified (Ni-NTA, amylose, ion exchange, SEC); not shown: His6, N-terminal, cleaved
B5: TEX12 core F102A F109A V116A (domain or fragment, human, UniProt Q9BXU0 49-123, looked up)
chain: KDEALEKDLNDVSKEINLMLSTYAKLLSERAAVDASYIDEIDELFKEANAIENALIQKREALRQRFTAIANTLHR
notes: TEX12, human, core, residues 49-123, with F102A, F109A and V116A; also called FFV (core); source: E. coli BL21 (DE3), co-expressed with SYCE2, purified (Ni-NTA, amylose, ion exchange, SEC); not shown: His6, N-terminal, cleaved
B6: SYCE2-TEX12 core wild-type MBP-fusion, 2:2 building block (complex, human)
chain 1: T1 sequence (looked up)
chain 2: B5 chain with A54F, A61F, A68V
notes: SYCE2, human, core, residues 57-165; TEX12, human, core, residues 49-123; m6 + m16; found as a 4:4 complex in solution; also called SYCE2-TEX12 core MBP-fusion wild-type; source: E. coli BL21 (DE3), co-expressed, purified; not shown: MBP, N-terminal, kept; copies: 2 + 2
B7: TEX12 core (49-123) of the SYCE2-TEX12 core MBP-fusion proteins (domain or fragment, human, UniProt Q9BXU0 49-123, looked up)
chain: B5 chain with A54F, A61F, A68V
notes: TEX12, human, core, residues 49-123; also called TEX12 core in the MBP-fusion complexes; source: E. coli BL21 (DE3), co-expressed with MBP-SYCE2, purified
B8: SYCE2-TEX12 core wild-type, 2:2 building block (complex, human)
chain 1: T1 sequence (looked up)
chain 2: B5 chain with A54F, A61F, A68V
notes: SYCE2, human, core, residues 57-165; TEX12, human, core, residues 49-123; in solution it is found as 4:4 complex and larger assemblies, which are the rows of this molecule with itself; also called core complex; wild-type core; source: E. coli BL21 (DE3), co-expressed, purified (Ni-NTA, amylose, ion exchange, SEC); not shown: MBP, N-terminal, cleaved; His6, N-terminal, cleaved; copies: 2 + 2
B9: SYCE2-TEX12 core H89E/Y115E, 2:2 building block (complex, human)
chain 1: T1 sequence (looked up) with H33E, Y59E
chain 2: B5 chain with A54F, A61F, A68V
notes: SYCE2, human, core, residues 57-165, with H89E and Y115E; TEX12, human, core, residues 49-123; m4 + m8; also called H89E Y115E mutation; source: E. coli BL21 (DE3), co-expressed, purified (Ni-NTA, amylose, ion exchange, SEC); not shown: MBP, N-terminal, cleaved; His6, N-terminal, cleaved; copies: 2 + 2
B10: TEX12 core L110E F114E I117E L121E (domain or fragment, human, UniProt Q9BXU0 49-123, looked up)
chain: B5 chain with A54F, A61F, L62E, F66E, A68V, I69E, L73E
notes: TEX12, human, core, residues 49-123, with L110E, F114E, I117E and L121E; also called LFIL (core); source: E. coli BL21 (DE3), co-expressed with SYCE2, purified (Ni-NTA, amylose, ion exchange, SEC); not shown: His6, N-terminal, cleaved
B11: TEX12 full-length (1-123) (natural protein, human, UniProt Q9BXU0 1-123, looked up)
chain: MMANHLVKPDNRNCKRPRELESPVPDSPQLSSLGKSDSSFSEISGLFYKDEALEKDLNDVSKEINLMLSTYAKLLSERAAVDASYIDEIDELFKEANAIENFLIQKREFLRQRFTVIANTLHR
notes: TEX12, human, full-length, residues 1-123; source: E. coli BL21 (DE3), co-expressed with SYCE2, purified (Ni-NTA, amylose, ion exchange, SEC); not shown: His6, N-terminal, cleaved
B12: SYCE2-TEX12 full-length wild-type, 2:2 building block (complex, human)
chain 1: T3 sequence (looked up)
chain 2: B11 chain
notes: SYCE2, human, full-length, residues 1-218; TEX12, human, full-length, residues 1-123; m2 + m9; also called full-length SYCE2-TEX12; source: E. coli BL21 (DE3), co-expressed, purified (Ni-NTA, amylose, ion exchange, SEC); not shown: MBP, N-terminal, cleaved; His6, N-terminal, cleaved; copies: 2 + 2
B13: SYCE2-TEX12 full-length FFV (TEX12 F102A F109A V116A), 2:2 building block (complex, human)
chain 1: T3 sequence (looked up)
chain 2: B11 chain with F102A, F109A, V116A
notes: SYCE2, human, full-length, residues 1-218; TEX12, human, full-length, residues 1-123, with F102A, F109A and V116A; m2 + m14; source: E. coli BL21 (DE3), co-expressed, purified (Ni-NTA, amylose, ion exchange, SEC); not shown: MBP, N-terminal, cleaved; His6, N-terminal, cleaved; copies: 2 + 2
B14: TEX12 full-length L110E F114E I117E L121E (natural protein, human, UniProt Q9BXU0 1-123, looked up)
chain: B11 chain with L110E, F114E, I117E, L121E
notes: TEX12, human, full-length, residues 1-123, with L110E, F114E, I117E and L121E; also called LFIL (full-length); source: E. coli BL21 (DE3), co-expressed with SYCE2, purified (Ni-NTA, amylose, ion exchange, SEC); not shown: His6, N-terminal, cleaved
B15: TEX12 full-length F102A F109A V116A (natural protein, human, UniProt Q9BXU0 1-123, looked up)
chain: B11 chain with F102A, F109A, V116A
notes: TEX12, human, full-length, residues 1-123, with F102A, F109A and V116A; also called FFV (full-length); source: E. coli BL21 (DE3), co-expressed with SYCE2, purified (Ni-NTA, amylose, ion exchange, SEC); not shown: His6, N-terminal, cleaved
B16: SYCE2 core (amino-acids 57-165) (domain or fragment, human, UniProt Q6PIF2 57-165, looked up)
chain: T1 sequence (looked up)
notes: SYCE2, human, core, residues 57-165; also called SYCE2 structural core; source: E. coli BL21 (DE3), co-expressed with TEX12, purified (Ni-NTA, amylose, ion exchange, SEC); not shown: MBP, N-terminal, cleaved

Tests used:
[1] = target: SYCE2-TEX12 core ΔCtip 2:2 complex (human) (UniProt Q6PIF2); assay: SEC-MALS; co-purified complexes at >1 mg/ml on Superdex 200 Increase 10/300 GL in 20 mM Tris pH 8.0, 150 mM KCl, 2 mM DTT; in Fig. 1 core at 200 uM and full-length at 100 uM (4 mg/ml)
[2] = target: SYCE2-TEX12 core FFV (TEX12 F102A F109A V116A), 2:2 building block (human) (UniProt Q6PIF2); assay: as above
[3] = target: SYCE2-TEX12 full-length ΔCtip 2:2 complex (human) (UniProt Q6PIF2); assay: as above
[4] = target: T1, MBP-SYCE2 core (57-165) fusion protein; assay: as above; details: both partners purified
[5] = target: the molecule itself; assay: crystal structure; SYCE2-TEX12 core ΔCtip 2:2 complex, 33 mg/ml, 35 % MPD, 20°C; space group P21; PDB 6R17
[6] = target: T2, SYCE2 core ΔS2C (amino-acids 57-154); assay: SEC-MALS; co-purified complexes at >1 mg/ml on Superdex 200 Increase 10/300 GL in 20 mM Tris pH 8.0, 150 mM KCl, 2 mM DTT; in Fig. 1 core at 200 uM and full-length at 100 uM (4 mg/ml); details: both partners purified
[7] = target: B16; assay: as above; details: both partners purified
[8] = target: the molecule itself; assay: as above
[9] = target: T3, SYCE2 full-length (1-218); assay: as above; details: both partners purified
[10] = target: T4, MBP-SYCE2 core ΔS2C (57-154) fusion …; assay: as above; details: both partners purified

- percent of total mass as 2:2 complex (not self-associated) [1]: 98%
- percent of total mass as 4:4 complex [1]: 2%
- stoichiometry N (2:2 building blocks) [1]: 2
Molecule: SYCE2-TEX12 core ΔCtip 2:2 complex (from UniProt Q6PIF2 57-165; Q9BXU0 49-113)

- stoichiometry N (2:2 building blocks) [2]: 2
Molecule: SYCE2-TEX12 core FFV (TEX12 F102A F109A V116A), 2:2 building block (from UniProt Q6PIF2 57-165; Q9BXU0 49-123) (complex)

- percent of total mass as 2:2 complex (not self-associated) [3]: 98%
- percent of total mass as 4:4 complex [3]: 2%
- stoichiometry N (2:2 building blocks) [3]: 2
Molecule: SYCE2-TEX12 full-length ΔCtip 2:2 complex (from UniProt Q6PIF2 1-218; Q9BXU0 1-113)

Molecule: B1
- stoichiometry N [4]: 1 TEX12 per SYCE2 (2:2)

Molecule: B2
- binding result [5]: binds
- stoichiometry N [6]: 1 TEX12 per SYCE2 (2:2)
- stoichiometry N [7]: 1 TEX12 per SYCE2 (2:2)

Molecule: B3
- percent of total mass as 2:2 complex (not self-associated) [8]: 86%
- percent of total mass as 4:4 complex [8]: 14%
- stoichiometry N [8]: 2 2:2 building blocks

Molecule: B4
- stoichiometry N [9]: 1 TEX12 per SYCE2 (2:2)

Molecule: B5
- stoichiometry N [7]: 1 TEX12 per SYCE2 (4:4)

Molecule: B6
- stoichiometry N [8]: 2 2:2 building blocks

Molecule: B7
- stoichiometry N [4]: 1 TEX12 per SYCE2 (4:4)
- stoichiometry N [10]: 1 TEX12 per SYCE2 (2:2)

Molecule: B8
- percent of total mass as 4:4 complex [8]: 75%
- stoichiometry N [8]: 2 2:2 building blocks

Molecule: B9
- percent of total mass as 2:2 complex (not self-associated) [8]: 60%
- percent of total mass as 4:4 complex [8]: 40%
- stoichiometry N [8]: 2 2:2 building blocks

Molecule: B10
- stoichiometry N [7]: 1 TEX12 per SYCE2 (2:2)

Molecule: B11
- stoichiometry N [9]: 1 TEX12 per SYCE2 (2:2)

Molecule: B12
- percent of total mass as 2:2 complex (not self-associated) [8]: 12%
- percent of total mass as 4:4 complex [8]: 18%
- stoichiometry N [8]: 2 2:2 building blocks

Molecule: B13
- percent of total mass as 2:2 complex (not self-associated) [8]: 15%
- percent of total mass as 4:4 complex [8]: 20%
- stoichiometry N [8]: 2 2:2 building blocks

Molecule: B14
- stoichiometry N [9]: 1 TEX12 per SYCE2 (2:2)

Molecule: B15
- stoichiometry N [9]: 1 TEX12 per SYCE2 (2:2)

Molecule: B16
- binding result [5]: binds
